B3: murine monoclonal antibody 7D8 (ATCC Accession Number PTA-9468) (antibody, mouse IgG2b, V domains shown)
VH: EVQLVESGGRLVQPKGSLKLSCAASGFTFNTYAMYWIRQAPGKGLEWVARIRSKSNNYAIYYADSVKDRFTIFRDDSQSMLYLQMNNLKTEDTAMYYCVRPYSDSFAYWGQGTLVTVSA
VL: DVVMTQTPLSLPVSLGDQASISCRSSLSLVHSTGNTYLHWYLQKPGQSPKLLIYKVSNRFSGVPDRFSGSGSGTYFTLKISRVEAEDLGVYFCSQSTHVPFTFGGGTKLEIK
notes: Murine IgG2b kappa; also called mAb 7D8; 7D8.29.19.47

One test deals with T1, peptide 69, CGGHEDTMA
T1 peptide: CGGHEDTMA
Nature of the test: BIAcore, antibody binding to peptides.

A further test concerns the target T2, peptide 70, CGGHEDTMAD
T2 peptide: CGGHEDTMAD
The test is described as follows: BIAcore, antibody binding to peptides. For orientation: SPR reads the build-up and loss of mass on a sensor chip optically.

The next test deals with T3, peptide 66, CGGHEAT.
T3 peptide: CGGHEAT
The test is described as follows: BIAcore, antibody binding to peptides.

The target in a further test is T4, peptide 68, CGGHEDTM
T4 peptide: CGGHEDTM
Nature of the test: BIAcore, antibody binding to peptides.

Test [1] addresses T5, murine AA amyloid (AA fibrils; amyloid enhancing factor extract, AEF) (mouse).
T5 construct: also called Mouse AA (AEF); murine AA AEF
T5 sequence (P05366 whole entry, looked up): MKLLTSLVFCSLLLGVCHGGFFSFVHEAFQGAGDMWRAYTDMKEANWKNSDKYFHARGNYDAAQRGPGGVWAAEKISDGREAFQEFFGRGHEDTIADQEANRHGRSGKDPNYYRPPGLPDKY
The test is described as follows: ELISA, purified mAb on mouse AA amyloid extract (AEF). The protocol:
(§1) Protein Mr markers (Std) are, form top to bottom: 176, 119, 75, 49, 39, 25 and 19 kDa. The interaction of the purified mAbs with immunizing peptide p#39, control peptide (p#41), murine and human AA extracts were determined by ELISA as described above.
(§2) In contrast, even at the highest concentration of mAb used (100 nM) there was little detectable binding to the p#41 peptide (FIG. 33—Each point represents the mean±SE, (n=3 at each concentration)). […] The calculated EC50 values for the mAbs binding to mouse AA extract were essentially identical to those obtained when the p#39 peptide was used as the substrate (FIG. 34; Table 5). […] Because the EC50 value for 7D8 mAb binding was the lowest of the 3 antibodies tested, Applicants selected this reagent for in vivo co-localization and imaging studies. The 2 amino acid substitutions in the human SAA sequence with respect to the murine protein affected the EC50 values.
(In an ELISA, binding on a coated surface is turned into a signal by an enzyme label.)

The target in test [2] is T5, murine AA amyloid (AA fibrils; amyloid …). The test is described as follows: ELISA, hybridoma culture supernatant on murine AA AEF; not corrected for mAb concentration. The text has this: The interaction of 2A4, 8G9 and 7D8 mAbs with AA amyloid was initially tested by ELISA and the data, given in FIG. 31, analyzed using SigmaPlot (SPSS Inc.). Each point represents the mean±SE (n=3). A culture supernatant from an irrelevant hybridoma was used as a control (Ctrl Culture Sup). […] (In addition, the immunohistochemical reactivity of the day 1 material was greater than the day 2 samples). […] Because of the low signal and high variability found with the culture supernatants and to determine more accurately the relative binding affinity of the mAbs for murine and human AA amyloid fibrils (as well as to provide material for in vivo biodistribution studies) it was necessary to isolate the mAbs by protein A affinity chromatography. The purity of the isolated mAbs was established SDS-PAGE using 10% acrylamide gels under reducing and non-reducing conditions (FIG. 32). Samples in lanes 1-4 treated with mercaptoethanol, lanes 5-9 without. Gel was stained with Coomassie blue: mAb 8G9, lanes 1 and 6; mAb 2A4, lanes 2 and 7; mAb 7D8, lanes 3 and 8; SP2/0 control supernatant, lanes 4 and 9; blank, lane 5. Protein Mr markers (Std) are, form top to bottom: 176, 119, 75, 49, 39, 25 and 19 kDa. The interaction of the purified mAbs with immunizing peptide p#39, control peptide (p#41), murine and human AA extracts were determined by ELISA as described above.

The target of test [3] is T6, synthetic Vλ6 Wil fibrils.
T6 construct: Fibrillar (aggregated) form, sonicated and amine-coupled to a CM-5 chip (about 16,000 RU); also called immobilized Vλ6 Wil fibrils
The test is described as follows: SPR (BIAcore), mAb at 6.6 nM over immobilized synthetic Vλ6 Wil fibrils. The protocol:
Surface plasmon resonance was used to establish the binding kinetics of several monoclonal antibodies with Vλ6 Wil fibrils and monomer. […] The deflection (expressed in RU) during the binding phase was similar for mAbs 7D8 and 2A4 but was 50% lower for 8G9.
(§3) Sensograms were run in HBS-EP buffer from BIAcore at 20 μL/min in the Fc1 (Vλ6 Wil fibrils) minus Fc-2 (control) mode. Samples containing mAb or mAb plus peptide inhibitors were injected (70 μL) and the sensograms collected using the delayed-wash function for 200 sec. Data were analyzed in the BIAevalutation software, using the 1:1 Langmuir model with mass-action correction.

For test [4], the target named is T7, human AA amyloid (human renal AA amyloid extract; AA deposits in human tissue) (human).
T7 construct: also called human AA amyloid extract; human AA amyloid fibrils
T7 sequence (P0DJI8 19-94, looked up): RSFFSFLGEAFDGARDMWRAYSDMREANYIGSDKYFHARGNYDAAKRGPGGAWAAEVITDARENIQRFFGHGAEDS
Nature of the test: ELISA, purified mAb on plate-dried human AA amyloid extract. The protocol:
as §1, §2

A further test addresses T8, peptide 65, CGGHADT.
T8 peptide: CGGHADT
Nature of the test: BIAcore, antibody binding to peptides.

The target of the next test is T9, peptide 71, CGGHED.
T9 peptide: CGGHED
The test is described as follows: BIAcore, antibody binding to peptides.

Test [5] deals with B3. The test is described as follows: BIAcore competition: peptide p41 in solution with mAb 7D8 (6.6 nM) injected over immobilized Vλ6 Wil fibrils. The protocol: FIG. 28: Binding kinetics of mAb 7D8 to synthetic Vλ6 Wil fibrils in the presence of the p39 and p41 peptides. The interaction of the mAb 7D8 at 6.6 nM with immobilized Vλ6 Will fibrils was measured by BIAcore in the presence of peptides p39 and p41 at 1 or 20 μg/mL.
To assess the specificity of the reaction and ensure that the binding of the mAbs with the fibrils occurred via the classic F(ab)-antigen interaction (as opposed to Fc-mediated binding or non-specific adsorption), binding data were acquired in the presence of the immunogen peptide (p39) at 20 and 1 μg/mL (FIG. 8). […] In the presence of 20 μg/mL p41 peptide, the binding kinetics for mAb 7D8 with Vλ6 Wil fibrils were identical to 7D8 alone.
as §3

B1: murine monoclonal antibody 2A4 (ATCC Accession Number PTA-9662) (antibody, V domains shown)
VH: EVQLVESGGRLVQPKGSLKLSCAASGFTFNTYAMYWIRQAPGKGLEWVARIRSKSNNYAIYYADSVKDRFTIFRDDSQSMLYLQMNNLKTEDTAMYYCVRPYSDSFAYWGQGTLVTVSA
VL: DVVMTQTPLSLPVSLGDQASISCRSSQSLVHSTGNTYLHWYLQKPGQSPKLLIYKVSNRFSGVPDRFSGSGSGTYFTLKISRVEAEDLGVYFCSQSTHVPFTFGGGTKLEIK
notes: Murine IgG2b kappa; Used as hybridoma culture supernatant or as protein A-purified mAb; also called mAb 2A4; 2A4.20.44.77
With B1, the binding result with peptide 69, CGGHEDTMA is recorded as “no binding”; with peptide 70, CGGHEDTMAD it was “no binding”; with peptide 66, CGGHEAT, “no binding”; in the test with peptide 68, CGGHEDTM, “no binding”. The EC50 (usually the concentration at which the effect is half-maximal) stood at 4.09 nM in test [1] and 26.4 nM in [4]. The “supernatant dilution after which reactivity is absent” value (shortened to “supernatant dilution”) in test [2] is ~64 fold dilution (1:x). Also, the Kd (commonly a measure of binding affinity in units of concentration) in test [3] is around 1 nM.

B2: murine monoclonal antibody 8G9 (antibody, mouse IgG2b, V domains shown)
VH: EVQLVESGGRLVQPKGSLKLSCAASGFTFNTYAMYWIRQAPGKGLEWVARIRSKSNNYAIYYADSVKDRFTIFRDDSQSMLYLQMNNLKTEDTAMYYCVRPYSDSFAYWGQGTLVTVSA
VL: DVVMTQTPLSLPVSLGDQASISCRSSQSLVHSTGNTYLHWYLQKPGQSPKLLIYKVSNRFSGVPDRFSGSGSGTYFTLKISRVEAEDLGVYFCSQSTHVPFTFGGGTKLEIK
notes: Murine IgG2b kappa; also called mAb 8G9; 8G9.3.4.51.22
As to B2, the EC50 in [1] amounted to 5.64 nM; in test [4], 31.7 nM. For the same molecule, in [2], the “supernatant dilution” value is ~64 fold dilution (1:x). This molecule also displayed a dissociation constant Kd in test [3] of around 1 nM.

Regarding B3, the binding result is “no binding” with peptide 69, CGGHEDTMA; “no binding” with peptide 65, CGGHADT; “no binding” in the test with peptide 71, CGGHED; “no binding” in the test with peptide 70, CGGHEDTMAD; “no binding” with peptide 66, CGGHEAT; “no binding” with peptide 68, CGGHEDTM. Besides, the results for the EC50 in test [1] and in [4] were 1.84 nM and 13.3 nM, respectively. Besides, the “supernatant dilution” value in test [2] was ~64 fold dilution (1:x). Moreover, the Kd in [3] was around 1 nM.

Take GHEDTIADQE (also called p41; p#41) [peptide 41, GHEDTIADQE]: in [5], the binding result is “no binding (tested: 20 µg/mL)”.

For the origin of these results see US20120039878A1 (ELAN PHARMACEUTICALS, published 2012).
